The labels stand for the following.
B1: Pol32, accessory subunit of DNA polymerase ζ (Polζ) (natural protein, Saccharomyces cerevisiae, UniProt P47110 1-350, looked up)
chain: MDQKASYFINEKLFTEVKPVLFTDLIHHLKIGPSMAKKLMFDYYKQTTNAKYNCVVICCYKDQTIKIIHDLSNIPQQDSIIDCFIYAFNPMDSFIPYYDIIDQKDCLTIKNSYELKVSESSKIIERTKTLEEKSKPLVRPTARSKTTPEETTGRKSKSKDMGLRSTALLAKMKKDRDDKETSRQNELRKRKEENLQKINKQNPEREAQMKELNNLFVEDDLDTEEVNGGSKPNSPKETDSNDKDKNNDDLEDLLETTAEDSLMDVPKIQQTKPSETEHSKEPKSEEEPSSFIDEDGYIVTKRPATSTPPRKPSPVVKRALSSSKKQETPSSNKRLKKQGTLESFFKRKAK
notes: Pol32, Saccharomyces cerevisiae, accessory subunit of Polζ, full-length (residues 1-350); The full-length protein was in the sample; also called Pol32N; source: expressed in yeast from plasmids pBJ1462 and pBJ1524, purified as the Polζ holoenzyme
B2: Pol31, accessory subunit of DNA polymerase ζ (Polζ) (natural protein, Saccharomyces cerevisiae, UniProt P46957 1-487, looked up)
chain: MDALLTKFNEDRSLQDENLSQPRTRVRIVDDNLYNKSNPFQLCYKKRDYGSQYYHIYQYRLKTFRERVLKECDKRWDAGFTLNGQLVLKKDKVLDIQGNQPCWCVGSIYCEMKYKPNVLDEVINDTYGAPDLTKSYTDKEGGSDEIMLEDESGRVLLVGDFIRSTPFITGVVVGILGMEAEAGTFQVLDICYPTPLPQNPFPAPIATCPTRGKIALVSGLNLNNTSPDRLLRLEILREFLMGRINNKIDDISLIGRLLICGNSVDFDIKSVNKDELMISLTEFSKFLHNILPSISVDIMPGTNDPSDKSLPQQPFHKSLFDKSLESYFNGSNKEILNLVTNPYEFSYNGVDVLAVSGKNINDICKYVIPSNDNGESENKVEEGESNDFKDDIEHRLDLMECTMKWQNIAPTAPDTLWCYPYTDKDPFVLDKWPHVYIVANQPYFGTRVVEIGGKNIKIISVPEFSSTGMIILLDLETLEAETVKIDI
notes: Pol31, Saccharomyces cerevisiae, accessory subunit of Polζ, full-length (residues 1-487); source: expressed in yeast from plasmids pBJ1462 and pBJ1524, purified as the Polζ holoenzyme
B3: Rev7, accessory subunit of DNA polymerase ζ (Polζ) (natural protein, Saccharomyces cerevisiae, UniProt P38927 1-245, looked up)
chain: MNRWVEKWLRVYLKCYINLILFYRNVYPPQSFDYTTYQSFNLPQFVPINRHPALIDYIEELILDVLSKLTHVYRFSICIINKKNDLCIEKYVLDFSELQHVDKDDQIITETEVFDEFRSSLNSLIMHLEKLPKVNDDTITFEAVINAIELELGHKLDRNRRVDSLEEKAEIERDSNWVKCQEDENLPDNNGFQPPKIKLTSLVGSDVGPLIIHQFSEKLISGDDKILNGVYSQYEEGESIFGSLF
notes: Rev7, Saccharomyces cerevisiae, accessory subunit of Polζ, full-length (residues 1-245); Two copies (Rev7A and Rev7B) stand in the pentameric holoenzyme; also called Rev7B; source: expressed in yeast from plasmids pBJ1462 and pBJ1524, purified as the Polζ holoenzyme
B4: A:C mismatched palindromic template-primer (dsDNA)
DNA 1: TAATGATAGGGGAGGGAATCCCTCCCCTAC
DNA 2: B4 DNA 1
modifications: 3'-dideoxy C terminus

Series [1] concerns the target T1, Polζ holoenzyme (Rev3-Rev7-Pol31-Pol32) (Saccharomyces cerevisiae, UniProt P14284).
T1 construct: full-length subunits, holoenzyme expressed in yeast from plasmids pBJ1462 and pBJ1524; pentameric complex with two Rev7 (Rev7A, Rev7B); with DNA polymerase zeta processivity subunit; DNA polymerase delta small subunit; DNA polymerase delta subunit 3
The series can be described thus: cryo-EM structure, […] Å. The class given is binding. To be noted: ternary complex with dideoxy-terminated A:C mismatched primer-template DNA, templating G; 1 mM dCTP; CaCl2 (Ca2+ metal B); Rev3 active site, fingers open.

The target of series [2] is B2. Nature of the series: cryo-EM structure; Polζ holoenzyme incubated in a CaCl2 supplemented buffer with palindromic DNA (1.5 molar excess) with an A:C mismatch at the primer terminus, 1 mM dCTP; nominal resolution 3.05 Å. To be noted: both partners purified.
The target of series [3] is T2, Rev3, catalytic subunit of DNA polymerase ζ (Polζ) (Saccharomyces cerevisiae, UniProt P14284 1-1504).
T2 construct: Rev3, Saccharomyces cerevisiae, catalytic subunit of Polζ, full-length (residues 1-1,504); also called catalytic Rev3; source: expressed in yeast from plasmids pBJ1462 and pBJ1524, purified as the Polζ holoenzyme
T2 sequence (P14284 whole entry, the tested form may be a part): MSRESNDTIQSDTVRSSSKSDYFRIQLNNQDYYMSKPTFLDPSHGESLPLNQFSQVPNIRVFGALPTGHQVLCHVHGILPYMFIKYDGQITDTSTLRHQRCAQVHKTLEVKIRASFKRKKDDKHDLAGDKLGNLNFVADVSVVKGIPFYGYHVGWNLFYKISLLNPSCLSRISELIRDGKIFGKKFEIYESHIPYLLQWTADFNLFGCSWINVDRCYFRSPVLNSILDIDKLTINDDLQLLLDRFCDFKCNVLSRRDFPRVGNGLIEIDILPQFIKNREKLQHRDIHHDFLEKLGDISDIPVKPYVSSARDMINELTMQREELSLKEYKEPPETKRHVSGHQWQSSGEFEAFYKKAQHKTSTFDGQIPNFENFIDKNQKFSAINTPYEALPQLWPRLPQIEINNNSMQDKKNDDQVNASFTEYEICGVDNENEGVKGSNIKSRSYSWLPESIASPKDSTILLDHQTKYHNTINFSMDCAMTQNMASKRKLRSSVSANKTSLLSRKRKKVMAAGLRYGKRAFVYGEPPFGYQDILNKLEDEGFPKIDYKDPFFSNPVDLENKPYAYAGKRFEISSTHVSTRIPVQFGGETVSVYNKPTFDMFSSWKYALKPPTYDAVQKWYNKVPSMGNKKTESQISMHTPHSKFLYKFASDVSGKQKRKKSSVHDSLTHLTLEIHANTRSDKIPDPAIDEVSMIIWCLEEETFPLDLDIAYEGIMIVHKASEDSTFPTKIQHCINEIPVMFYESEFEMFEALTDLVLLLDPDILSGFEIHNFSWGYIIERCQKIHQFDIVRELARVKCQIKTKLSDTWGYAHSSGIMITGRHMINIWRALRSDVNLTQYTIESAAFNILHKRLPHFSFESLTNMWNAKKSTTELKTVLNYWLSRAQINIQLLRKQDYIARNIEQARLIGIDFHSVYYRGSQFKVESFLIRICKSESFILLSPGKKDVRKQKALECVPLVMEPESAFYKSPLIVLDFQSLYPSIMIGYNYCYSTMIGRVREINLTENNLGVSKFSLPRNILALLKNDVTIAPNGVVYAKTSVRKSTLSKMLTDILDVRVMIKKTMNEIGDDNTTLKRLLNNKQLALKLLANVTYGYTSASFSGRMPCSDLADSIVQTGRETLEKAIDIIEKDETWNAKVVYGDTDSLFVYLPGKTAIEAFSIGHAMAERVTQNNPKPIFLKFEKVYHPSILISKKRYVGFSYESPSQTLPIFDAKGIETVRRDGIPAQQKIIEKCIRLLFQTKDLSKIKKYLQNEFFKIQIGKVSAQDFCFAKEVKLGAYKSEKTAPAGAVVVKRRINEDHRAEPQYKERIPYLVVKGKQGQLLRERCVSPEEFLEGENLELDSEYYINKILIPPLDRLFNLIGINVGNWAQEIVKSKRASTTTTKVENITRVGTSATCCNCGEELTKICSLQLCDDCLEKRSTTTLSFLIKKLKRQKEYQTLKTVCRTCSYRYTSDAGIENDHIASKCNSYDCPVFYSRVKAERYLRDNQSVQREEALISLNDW
The description is as above. To be noted: both partners purified.

For series [4], the target named is B1. The series is described as above. To be noted: both partners purified.
Series [5] addresses Rev3 (Polζ catalytic subunit);Rev7;Pol31;Pol32 (Saccharomyces cerevisiae;Saccharomyces …, UniProt P14284;P38927;P46957;P47110 1-1504;1-245;1-487;1-350, |||). The series can be described thus: cryo-EM structure (3.05 Å); 1 mM dCTP, CaCl2; metal ion B; CaCl2-supplemented buffer, DNA in 1.5 molar excess, 1 mM dCTP; salt, pH and temperature not given. To be noted: protein: recombinant;recombinant;recombinant;recombinant; tags: ;;;; copies: 1;2;1;1; self-annealed palindrome, 2 copies of one strand; 5' overhang 5 nt (TAATG, templating G); A6:C30 mismatch at primer terminus; central A:A.

Chain of Rev3 (Polζ catalytic subunit);Rev7;Pol31;Pol32 (P14284 whole entry, one chain of several): as the sequence (P14284 whole entry, the tested form may be a part) above
T1 sequence (P14284 whole entry, one chain of several): as the sequence (P14284 whole entry, the tested form may be a part) above

Consider `Nc1ccn([C@H]2C[C@H](O)[C@@H](COP(=O)(O)OP(=O)(O)OP(=O)(O)O)O2)c(=O)n1` [dCTP], for which the “cryo-EM structure, 3.05 Å” value in series [1] was “Rev3 is observed with the incoming nucleotide dCTP (position P0) opposite the templating base G”.
For the molecule B1, the binding result in series [2] is given as “binds”.
In the case of B2, the binding result in series [3] is “binds”.
On to B3, for which the binding result in series [3] and in series [4] was “binds” throughout.
Consider B4, for which the binding result in series [5] was “binds”.

Values taken from paper PMC8881453, “Cryo-EM structure of translesion DNA synthesis polymerase ζ with a base pair mismatch” (Nature Communications, 2022).
